Test results reported in patent US20200405868A1 (ADEPTHERA, published 2020).
Where no end group is shown, it is not given here. The star is where a group is joined. Palmitoyl = CCCCCCCCCCCCCCCC(=O)*

T1: PTH receptor 1 (PTHR1) (UniProt Q03431 27-593, limits assumed)
T1 sequence (looked up): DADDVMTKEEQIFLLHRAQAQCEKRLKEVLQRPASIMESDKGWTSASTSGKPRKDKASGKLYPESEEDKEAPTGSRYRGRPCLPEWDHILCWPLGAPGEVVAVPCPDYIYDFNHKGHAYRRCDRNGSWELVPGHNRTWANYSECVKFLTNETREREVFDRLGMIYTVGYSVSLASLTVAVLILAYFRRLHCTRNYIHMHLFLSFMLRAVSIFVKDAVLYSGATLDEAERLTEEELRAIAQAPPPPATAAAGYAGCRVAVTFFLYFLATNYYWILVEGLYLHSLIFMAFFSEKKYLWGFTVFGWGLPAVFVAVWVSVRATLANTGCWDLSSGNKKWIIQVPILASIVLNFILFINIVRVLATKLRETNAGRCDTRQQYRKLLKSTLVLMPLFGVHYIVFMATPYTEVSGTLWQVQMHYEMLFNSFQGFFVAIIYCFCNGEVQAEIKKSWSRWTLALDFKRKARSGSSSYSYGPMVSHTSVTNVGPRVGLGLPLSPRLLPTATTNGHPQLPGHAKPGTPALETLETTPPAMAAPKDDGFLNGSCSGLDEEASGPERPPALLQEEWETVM


Legend:
[1] = molecular target: T1, PTH receptor 1 (PTHR1); assay: cell-based or functional assay
[2] = molecular target: melanocortin receptor 1 (MC1R) (UniProt Q01726 1-317, limits assumed); assay: cell-based or functional assay
melanocortin receptor 1 (MC1R), sequence (Q01726 whole entry): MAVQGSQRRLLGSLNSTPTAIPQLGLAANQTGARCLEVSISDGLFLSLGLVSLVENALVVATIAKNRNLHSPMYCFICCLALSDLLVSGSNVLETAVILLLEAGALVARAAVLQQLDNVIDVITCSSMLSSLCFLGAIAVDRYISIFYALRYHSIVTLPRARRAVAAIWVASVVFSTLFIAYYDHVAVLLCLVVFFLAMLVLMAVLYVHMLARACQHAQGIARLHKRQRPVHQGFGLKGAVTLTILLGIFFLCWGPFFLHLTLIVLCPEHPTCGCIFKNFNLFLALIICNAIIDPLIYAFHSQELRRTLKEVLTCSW

EC50 (nM), PTHR1 cAMP agonistic assay [1] [nM]	EC50 (nM), MC1R cAMP agonistic assay [2] [nM]	Binder
14.1		Palmitoyl-HSYSEIQLMHNLGKHLNSMERVEWLRKKLQDVHNF [SEQ ID NO: 232, Pal-HSYSEIQLMHNLGKHLNSMERVEWLRKKLQDVHNF, gel-forming PTH analog]
	0.14	Palmitoyl-HSYSMEHFRWGKPVGKKRRPVKVYP [SEQ ID NO: 226, Pal-HSYSMEHFRWGKPVGKKRRPVKVYP, conjugated gel-forming ACTH1-24 analog]
